Target: Glu286 (UniProt position 286, FFGHPEVYIIV)
Assay: kinetics

Substance	pKa (~22 °C, not stated (100 mM buffer), 100 mM buffer after 1:5 mixing: MES (pH 6, 6.5), HEPES (pH 7-8), BIS-TRIS propane (pH 7-9), CHES (pH 9, 9.5), CAPS (pH 10-11). Also 0.1 mM EDTA., Fully (four-electron) reduced CytcO reacting with 1 mM O2, P3 intermediate, detergent-solubilised, no membrane potential)	pKa (Reduced wild-type CytcO reacting with O2, P3->F3 transition, cited from earlier work)
Cytochrome c oxidase (aa3-type) Ser425Ala variant (subunit I) (Rhodobacter sphaeroides; S425A)	>10.5	–
Cytochrome c oxidase (aa3-type), subunit I carries the titrating residue (Rhodobacter sphaeroides)	–	9.4
